“And” between values parts separate entries of the source, which are not always exact repeats. Identical values can stand only once.
Experiments:
[1] = biological target: MPR 300 affinity matrix (Man6P-receptor affinity matrix); assay: overnight incubation with MPR 300 affinity matrix; activity in unbound, glucose 6-phosphate and mannose 6-phosphate eluted fractions
[2] = biological target: MPR 300 affinity matrix (Man6P-receptor affinity matrix); assay: MPR 300 affinity column
[3] = biological target: MPR 300 affinity matrix (Man6P-receptor affinity matrix); assay: MPR 300 affinity matrix binding of enzyme batches

bovine LAMAN purified from kidney (from UniProt Q29451 51-999) (enzyme)
percent of LAMAN activity bound to the Man6P-receptor affinity matrix in a Man6P-dependent manner [1]: 6.4%

recombinant human lysosomal alpha-mannosidase (LAMAN) expressed in CHO cells (enzyme)
percent bound to the MRP 300 column [2]: < 40%
% phosphorylation (fraction of enzyme binding the Man6P-receptor affinity matrix) [3]: 40% and 30% and 42%
percent of the amount of enzyme binding to the affinity matrix [3]: 40%
percent of LAMAN bound to the Man6P-receptor affinity matrix in a Man6P-dependent manner [1]: 4.2%

recombinant mouse LAMAN with C-terminal polyhistidine tail, secreted from mannose 6-phosphate receptor deficient mouse embryonic fibroblasts (from UniProt O09159 50-1013) (enzyme)
percent of LAMAN activity bound to the Man6P-receptor affinity matrix [1]: 73.6%
